Laboratory results: PMC3760383

Assays:
Experiment in all cases: EMSA
IFI16 HIN-A = IFI16 HIN-A (Homo sapiens, UniProt Q16666-2 192-393)
p53 (82-360);IFI16 HIN-B = p53 (82-360);IFI16 HIN-B (Homo sapiens;Homo sapiens, UniProt P04637;Q16666-2 82-360;515-710, |)
p53 (82-393);IFI16 HIN-A = p53 (82-393);IFI16 HIN-A (Homo sapiens;Homo sapiens, UniProt P04637;Q16666-2 82-393;192-393, |)

IFI16 HIN-A, sequence (Q16666 192-393): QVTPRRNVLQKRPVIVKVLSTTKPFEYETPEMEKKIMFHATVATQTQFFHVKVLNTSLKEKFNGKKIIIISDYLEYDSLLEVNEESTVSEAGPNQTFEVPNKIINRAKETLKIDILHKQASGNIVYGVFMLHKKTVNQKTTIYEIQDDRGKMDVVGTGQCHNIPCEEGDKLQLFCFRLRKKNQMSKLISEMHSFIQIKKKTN

B1: p53 consensus 20-mer (dsDNA)
DNA 1: GGACATGCCCGGGCATGTCC
DNA 2: GGACATGCCCGGGCATGTCC
- binding result (IFI16 HIN-A): no binding
- binding result (p53 (82-360);IFI16 HIN-B): binds
- binding result (p53 (82-393);IFI16 HIN-A): binds
